Data from the nanobody polyreactivity screen of Harvey et al. (2022).

Test: yeast display, Sf9 membrane polyspecificity reagent, FACS + sequencing; frameworks hold sequencing errors
Procedure, shortened: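 Nanobodies from a synthetic yeast display library (Saccharomyces cerevisiae BJ5465), induced 36–48 hours with galactose, were stained 1 hour at 4 °C with 10% biotinylated, detergent-solubilized Sf9 membrane reagent, enriched on streptavidin microbeads, then FACS-sorted. Anti-HA (expression) and streptavidin (reagent binding) fluorescence set low and high (top ~1%) gates. Polyreactivity labels come from the gate of origin. Genes were colony-PCR amplified, MiSeq 2 × 250 sequenced and filtered by CDR length.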

Row | Sequence | polyreactivity (PSR sort gate)
1 | QVQLVESGGGLVQAGGSLRLSCAASGNTFYHYAMGWYRQAPVKERELVAGIRYNGGSTYYADSVKGRFTISRDNAKNTVYLQMISLKPEDTAVYYCATRGRTAWYTMDYWGQGTQVTVSS | high polyreactivity
2 | QVQLVESGGGLVQAGGSLRLSCAASGNTFYLYAMGWYRQAPGKEREFVAAITGNGGSTYYADSVKGRFTISRDNAKNTVYLQMNSLKPEDTEVYYCAATFWGYNQYDYWGQGTQVTVSS | high polyreactivity
3 | QVQLVESGGGLVQAGGSLRLSCAASGNTFYRNAMGWYRQAPGKDRELVAAIDYGGSTTYYADSVKGRFTISRDNSKNTVYLQMNSLKPEDTAVYYCAAREYRIGHVQPMDYWGQGTQVTVSS | high polyreactivity
4 | QVQLVESGGGLVQAGGSLRLSCAASGNTFYVKVMGWSRQAPGKERELVARITTSGGSTSYAESVKGRFTISRDNAKNTVSFQMNSMKPEDTAVYYCAASYHAFQNWEYDYWGQGTQVTVSS | low polyreactivity
5 | QVQLVESGGGLVQAGGSLRLSCAASGNTIDRYDMGWYRQPPGKEREFVAAITASAGSTYADSVKGRFTISRDNAKNTVYLQMNSLKPEDSAVYYCNAGNSSTGVDRYDYWGQGTQVTVSS | low polyreactivity
6 | QVQLVESGGGLVQAGGSLRLSCAASGNTIDSYGMGWYRQAPGKERELVAAISTSGGSTYYADSVKGRFTISRDNAKNTVYLQMNSLKPEDTAVYYCNATWTMTYDYWGQGTQVTVSS | low polyreactivity
7 | QVQLVESGGGLVQAGGSLRLSCAASGNTIGKYAMGWYRQAPGKETELVATITRRGGSTYYADSVKGRFTISRDNAKNTVYLQMNSLKPEDTAVYYCNRAVTYGTYDYWGQGTQVTVSS | high polyreactivity
8 | QVQLVESGGGLVQAGGSLRLSCAASGNTLDWYAMGGSRQAPGKERELVAAISSAGSTSYADSVKGRFTISRDNAKNTVYLQMNSLKPEDTAVYYCNVDVYSKDANFQSFASEYDYWGQGTQVTVSS | low polyreactivity
9 | QVQLVESGGGLVQAGGSLRLSCAASGNTLGYYAMGWYRPAPGKERELVATISDDGTTYYADSVKGRFTISRDNAKNTVSLQMNSLKPEDTAVYYCATDGSAQYSMDYWGQGTQVTVSS | low polyreactivity
10 | QVQLVESGGGLVQAGGSLRLSCAASGNTLRYNVMGWYRQAPGKERELVAAISGGGSTSYTDSVKGRLTISRDNAKNTVYLQMNSLKPEDTAVYYCATRSFVGGRGRDSDYWGQGTQVTVSS | low polyreactivity
11 | QVQLVESGGGLVQAGGSLRLSCAASGNTLSFYTMGWYRQAPGKERELVAAISSDGTTYYADSVKGRFTISRDNAKNTVYLQMNSLKPEDTAVYYCAKAHYEWIWTRYDYWGQGTQVTVSS | low polyreactivity
12 | QVQLVESGGGLVQAGGSLRLSCAASGNTLVYYAMGWYRQAPGKERELVADISSSGGITYYADSVKGRFTISRDNAKNTVYLLMNSLKPVDTAVYYCAVDYPLYYWYLYNYWGQGTQVTVSS | low polyreactivity
13 | QVQLVESGGGLVQAGGSLRLSCAASGNTLYTNAMGWYRQAPGKERELVAVISRGGSTYYADSVKGRFTISRDNAKNTVYLQMNSLKPEDTAVYYCATYGSSWSRAYGYWGQGTQVTVSS | high polyreactivity
14 | QVQLVESGGGLVQAGGSLRLSCAASGNTVWYNAMGWFIQAPGKETELVAAISYSGGGTYYAVSVKGRFTISREKAKNTVYLQMNCLKPDDSAVYYCSADTLQRAFVLYDYWGQGTQVTVSS | low polyreactivity
15 | QVQLVESGGGLVQAGGSLRLSCAASGNTVYYYGMGWYRQAPGKERDLVAAINYSGGSTYYADSVKGRNTISRDNAKNTVYLPMNSKKPEVTAVYYCNADYVPAYRDLASLADGYYWGQGTQVTVSS | low polyreactivity
16 | QVQLVESGGGLVQAGGSLRLSCAASGNTYSYNAMGWYRQAPGKEREFVASISRRGGRTNYADSVKGRFTISRDNAKNTVYLQMNSLKPEDTAVYYCAATTVPLGDYWGQVTQVTVSS | high polyreactivity
17 | QVQLVESGGGLVQAGGSLRLSCAASGPIYTYAMGWYRHAPGKERELVAAISRRGGSTYYADSVKGRFTISRDNAKNTVYLQMNSLKPEDTAVYYCAKERSFGDGNFDYEYWGQGTQVTVSS | high polyreactivity
18 | QVQLVESGGGLVQAGGSLRLSCAASGPNFTKYAMGWYRPAPGKERELVAGISSRGTSTYYADSVKGRFTISRDNAKNTVYLQMNSLKPEDTAVYYCNKDSKSRFTYDYWGQGTQVTVSS | high polyreactivity
19 | QVQLVESGGGLVQAGGSLRLSCAASGPTFNRYTMGWYRQAPGKERELVATITGGGSTNYADSVKGRFTISRDNAKNTVYLQMNSLKPEDTAVYYCARAVVQSRGPPRYKTPYDYWGQGTQVTVSS | low polyreactivity
20 | QVQLVESGGGLVQAGGSLRLSCAASGQIFVRNAMGWYRQAPGKERELVARISSGGSTNYADSVKGRFTISRDNAKNTVYLQMISLKPEDTAVYYCAARVYKGWPTHYDYWGQGTQVTVSS | high polyreactivity
21 | QVQLVESGGGLVQAGGSLRLSCAASGRAFYGNAMGWYRPAPGKERELVASISQRGGSTYYADSVKGRFTISRDTAKNTVYLQMNSLKPEDTAVYYCAARRKGYSTGLGHRISYDYWGQGTQVTVSS | high polyreactivity
22 | QVQLVESGGGLVQAGGSLRLSCAASGRFLVLNAMGWYRQAPAKERELVADLTSVGSTYYADSVKGRFTISRDNAKNTVDLQMNSLKPEDTAVYYFAADWNTYPDYQQSYFVSYEYNYWGQGTQVTVSS | low polyreactivity

Row | Sequence | polyreactivity (PSR sort gate)
23 | QVQLVESGGGLVQAGGSLRLSCAASGRICPKKGMGWYRQAPWKERELVAAITSGTSTYYADSVKGRFTISRDNAKNTVYLQMNSLKPEDTAVYYCNAVHARYRCQGDYWGQGTQVTVSS | low polyreactivity
24 | QVQLVESGGGLVQAGGSLRLSCAASGRICVYYAMGWYRQAPGKEREFVAAISWSGGSTYYADSVKGRFTISRDNAKNTVYLQMNSLKPEDTAVYYCAADVPWTVYYRWYDYWGQGTLVTVSS | low polyreactivity
25 | QVQLVESGGGLVQAGGSLRLSCAASGRIDAYTMGWYRQAPGKERELVAAISTSTSNTYYADSVKGRFTISRDNAKNTVYLQMNSLKPEDTAVYYCDEAYYSPWWGYYWGQGTQVTVSS | low polyreactivity
26 | QVQLVESGGGLVQAGGSLRLSCAASGRIDHNAMDWYRQAPGKERELVAAITWSGGGTYYADSVKGRFTISRDNAKNTVYLQMNSLKPEDTAVYYCNVRRAFSGWRGYDYWGQGTQVTVSS | high polyreactivity
27 | QVQLVESGGGLVQAGGSLRLSCAASGRIDLYNDMGWYRQAPGKERELVAAITWRSGSTYYADSVKGRFTFSRDNAKNTFYCQMNSLNPEDTAVYYCAKRGSGYKQDFKSYSGHYWGHGTQVTVSS | high polyreactivity
28 | QVQLVESGGGLVQAGGSLRLSCAASGRIFAAYAMGWYRQAPGKERELVAAITRRGSTYYADSVKGRFTISRDNAKNTVYLQMNSLKPEDTAVYYCNKVPLFQYSTAWYDYWGQGTQVTVSS | high polyreactivity
29 | QVQLVESGGGLVQAGGSLRLSCAASGRIFAFYALGLYRQAPGKEREFVAAITYSGGNTNYADSVKGRFTISRDNAKNTVYLQMNSLKPEDTAVYYCAADLVYGVYYQEDYWGQGTQVTVSS | low polyreactivity
30 | QVQLVESGGGLVQAGGSLRLSCAASGRIFAGYAMGWYRQAPGKERELVAAIRSGGSTNYADSVKGRFTISRDNAKNTVYLQMNSLKPEDTAVYYCAAETPVIPWDEMDYWGQGTQVTVSS | low polyreactivity
31 | QVQLVESGGGLVQAGGSLRLSCAASGRIFAGYAMGWYRQAPGKERELVAAISSGGGSTYYADSVKGRFTISRDNAKNTVYLQMNSLKPEDTAVYYCARDSYPHGRARFDYWGQGTQVTVSS | high polyreactivity
32 | QVQLVESGGGLVQAGGSLRLSCAASGRIFAGYAMGWYRQAPGKERELVAAITGTGDRTYYADSVKGRFTISRDNAKNTVYLQMNSLKPEDTAVYYCAAAYGAYYPWGYDYWGQGTQVTVSS | low polyreactivity
33 | QVQLVESGGGLVQAGGSLRLSCAASGRIFAKNAMGWYRQAPGKERELVAAINHSGGSTYYADSVKGRFTISRDNAKNTVYLQMNSLKPEDTAVYYCAALGSGVPRYYYWGQGTQVTVSS | high polyreactivity
34 | QVQLVESGGGLVQAGGSLRLSCAASGRIFAKNTMGWYRQAPGKERELVAAITWSSGNTDYADSVKGRFTISRDNAKNTVYLQMNSLKPEDTAVYYCNARFYYRPLRFSYDYWGQGTQVTVSS | high polyreactivity
35 | QVQLVESGGGLVQAGGSLRLSCAASGRIFAKYAMGWYRQAPGKERELVAAISLSGGRTYYADSVKGRFTISRDNAKNTVYLQMNSLKPEDTAVYYCAAEFYPIRYYGGYDYWGQGTQVTVSS | low polyreactivity
36 | QVQLVESGGGLVQAGGSLRLSCAASGRIFALNALGWYRQAPGKERELVATFRWSGGSTYYADSVKGRFTISRDYAKNTVYLQMNSLKPEDTAVYYCAAYSGNRRTYDYWGHGTQVTVSS | high polyreactivity
37 | QVQLVESGGGLVQAGGSLRLSCAASGRIFALNVMGWYRQAPGKERELVAAITWSSGRTYYADSVKGRFTISRDNAKNTVYLQMNSLKPEDTAVYYCAAAFRPRAIELSYYYWGQGTQVTVSS | high polyreactivity
38 | QVQLVESGGGLVQAGGSLRLSCAASGRIFAPYDMGWYRQAPGKERELVASITSGGSTNYTDSVKGRFTISRVNAKNTVYLQMNSLIPEDTAVYYCNTAKISEPIDPRQRVWGRTYDYWGQGTQVTVSS | low polyreactivity
39 | QVQLVESGGGLVQAGGSLRLSCAASGRIFAQYAMGWYRQAPGKERELVAAISRSGGTTYYADSVKGRFTISRDNAKNTVYLQMNSLKPDDTAVYYCAASLRYLYYYWGQGTQVTVSS | high polyreactivity
40 | QVQLVESGGGLVQAGGSLRLSCAASGRIFAQYAMGWYRQAPGKERELVADISSGVRTYADSVKVRFTISRDNAKNTVYLQMNSLKPEDTAVYYCNAYYIIFTRNDYWGQGTQVTVSS | low polyreactivity
41 | QVQLVESGGGLVQAGGSLRLSCAASGRIFARNAMGWYRQAPGKERELVADITSTGSTNYADSVKGRFTISRDNAMITVYLQMNSLKPEDTAVYYCAADYYTGYVWEDYYWGQGTQVTVSS | low polyreactivity
42 | QVQLVESGGGLVQAGGSLRLSCAASGRIFARYAMGWYRQAPGKERELVAAITKSVGSTYYADSVKGRFTISRDNAKNTVYLQMNSLKPEDTAVYYCNAVARGYGYDYWGQGTQVTVSS | high polyreactivity
43 | QVQLVESGGGLVQAGGSLRLSCAASGRIFARYAMGWYRQAPGTERELVASITRSGGSTYYADSVKGRFTISRDNAKNTVYLQMNSLKPEDTAVYYCAARYGRVRDVIPYDYWGQGTQVTVSS | high polyreactivity
